Experimental findings from patent publication US20230140797A1 (published 2023) are described below.

Numbering of substitutions follows the chain as printed.

Assay [1] has as its target T1, human FcγRIIb extracellular domain with C-terminal His tag (human, UniProt P31994 43-217).
T1 sequence (looked up): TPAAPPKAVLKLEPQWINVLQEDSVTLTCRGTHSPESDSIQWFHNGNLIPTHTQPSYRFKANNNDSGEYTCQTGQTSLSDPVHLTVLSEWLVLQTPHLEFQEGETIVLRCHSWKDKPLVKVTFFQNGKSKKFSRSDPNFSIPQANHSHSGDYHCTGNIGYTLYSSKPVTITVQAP
The assay can be described thus: SPR Biacore, amount bound per captured antibody. Background: SPR reads the build-up and loss of mass on a sensor chip optically.

For assay [2], the target named is human FcγRIa extracellular domain with C-terminal His tag (human, UniProt P12314 16-292). As to the kind of experiment: SPR Biacore, amount bound per captured antibody.
human FcγRIa extracellular domain with C-terminal His tag, sequence (P12314 16-292): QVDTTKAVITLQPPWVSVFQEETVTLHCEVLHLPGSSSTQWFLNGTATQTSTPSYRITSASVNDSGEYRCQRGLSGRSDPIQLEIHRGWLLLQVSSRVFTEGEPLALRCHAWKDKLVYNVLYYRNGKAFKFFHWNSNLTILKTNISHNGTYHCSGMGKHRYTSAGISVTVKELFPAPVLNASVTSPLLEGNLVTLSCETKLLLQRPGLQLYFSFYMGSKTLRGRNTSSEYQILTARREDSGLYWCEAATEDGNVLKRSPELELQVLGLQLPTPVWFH
Assay [3] deals with T2, human FcγRIIa type R extracellular domain with C-terminal His tag (human, UniProt P12318 34-217).
T2 sequence (looked up): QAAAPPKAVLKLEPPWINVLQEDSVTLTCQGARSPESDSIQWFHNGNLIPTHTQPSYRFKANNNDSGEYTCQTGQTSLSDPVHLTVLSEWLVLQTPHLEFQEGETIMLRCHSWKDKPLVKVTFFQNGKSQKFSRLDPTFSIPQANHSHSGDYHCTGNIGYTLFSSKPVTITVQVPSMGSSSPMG
As to the kind of experiment: SPR Biacore, amount bound per captured antibody.

In assay [4] the target is T3, human FcγRIIa type H extracellular domain with C-terminal His tag (human, UniProt P12318 34-217).
T3 sequence (looked up): T2 sequence (looked up) with R134H
The assay can be described thus: SPR Biacore, amount bound per captured antibody.

Assay [5] addresses human FcγRIIIa type V extracellular domain with C-terminal His tag (human, UniProt P08637 17-208). The assay can be described thus: SPR Biacore, amount bound per captured antibody.
Assay [6] addresses T4, biotinylated GPC3 peptide (human, biotin on the C-terminal Lys).
T4 peptide: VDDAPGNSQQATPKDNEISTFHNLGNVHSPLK
The assay can be described thus: Biacore T200 SPR, peptide on Sensor chip SA.

human FcγRIIIa type V extracellular domain with C-terminal His tag, sequence (P08637 17-208 F176V): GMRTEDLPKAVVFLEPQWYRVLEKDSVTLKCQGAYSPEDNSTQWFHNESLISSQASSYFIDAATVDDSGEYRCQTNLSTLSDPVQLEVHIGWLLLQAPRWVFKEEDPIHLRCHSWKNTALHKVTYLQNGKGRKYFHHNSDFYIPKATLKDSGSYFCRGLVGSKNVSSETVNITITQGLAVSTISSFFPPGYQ

B1: IL6R-BP199/IL6R-L (antibody, human IgG1, kappa)
heavy: QVQLQESGPGLVKPSETLSLTCAVSGHSISHDHAWSWVRQPPGEGLEWIGFISYSGITNYNPSLQGRVTISRDNSKNTLYLQMNSLRAEDTAVYYCARSLARTTAMDYWGEGTLVTVSSASTKGPSVFPLAPSSKSTSGGTAALGCLVKDYFPEPVTVSWNSGALTSGVHTFPAVLQSSGLYSLSSVVTVPSSSLGTQTYICNVNHKPSNTKVDKKVEPKSCDKTHTCPPCPAPDLLGGDSVFLFPPKPKDTLMISRTPEVTCVVVDVSHEDPEVKFNWYVDGVEVHNAKTKPREEQYNSTYRVVSVLTVLHQDWLNGKEYKCKVSNAALPRPIEKTISKAKGQPREPQVYTLPPSRDELTKNQVSLTCLVKGFYPSDIAVEWESNGQPENNYKTTPPVLDSDGSFFLYSKLTVDKSRWQQGNVFSCSVMHEALHNHYTQESLSLSP
light: not shown
For the molecule B1, the relative binding activity in assay [1] is 144 % of IL6R-BF648/IL6R-L; in assay [2], 112 % of IL6R-BF648/IL6R-L; in assay [3], 172 % of IL6R-BF648/IL6R-L; in assay [4], 116 % of IL6R-BF648/IL6R-L; in assay [5] it was 103 % of IL6R-BF648/IL6R-L.

B2: human IgE (hIgE) (antibody)
heavy: QVQLVQSGAEVKKPGASVKVSCKASGYTFTDYEMHWVRQAPGQGLEWMGALDPKTGDTAYSQKFKGRVTLTADKSTSTAYMELSSLTSEDTAVYYCTRFYSYTYWGQGTLVTVSSASTQSPSVFPLTRCCKNIPSNATSVTLGCLATGYFPEPVMVTWDTGSLNGTTMTLPATTLTLSGHYATISLLTVSGAWAKQMFTCRVAHTPSSTDWVDNKTFSVCSRDFTPPTVKILQSSCDGGGHFPPTIQLLCLVSGYTPGTINITWLEDGQVMDVDLSTASTTQEGELASTQSELTLSQKHWLSDRTYTCQVTYQGHTFEDSTKKCADSNPRGVSAYLSRPSPFDLFIRKSPTITCLVVDLAPSKGTVNLTWSRASGKPVNHSTRKEEKQRNGTLTVTSTLPVGTRDWIEGETYQCRVTHPHLPRALMRSTTKTSGPRAAPEVYAFATPEWPGSRDKRTLACLIQNFMPEDISVQWLHNEVQLPDARHSTTQPRKTKGSGFFVFSRLEVTRAEWEQKDEFICRAVHEAASPSQTVQRAVSVNPGK
light: DVVMTQSPLSLPVTPGEPASISCRSSQSLVHSNRNTYLHWYLQKPGQSPQLLIYKVSNRFSGVPDRFSGSGSGTDFTLKISRVEAEDVGVYYCSQNTHVPPTFGQGTKLEIKRTVAAPSVFIFPPSDEQLKSGTASVVCLLNNFYPREAKVQWKVDNALQSGNSQESVTEQDSKDSTYSLSSTLTLSKADYEKHKVYACEVTHQGLSSPVTKSFNRGEC
On to B2, for which the binding result in assay [6] is reported as “binds”.
